Results on 1 molecule are retold here after patent US20220153854A1 (Ablynx, published 2022).

In test [1] the target is T1, human OX40L (human, UniProt P23510 51-183).
T1 construct: Protein in solution or immobilised (SPR, Gyrolab); construct not described; also called huOX40L; hOX40L
T1 sequence (looked up): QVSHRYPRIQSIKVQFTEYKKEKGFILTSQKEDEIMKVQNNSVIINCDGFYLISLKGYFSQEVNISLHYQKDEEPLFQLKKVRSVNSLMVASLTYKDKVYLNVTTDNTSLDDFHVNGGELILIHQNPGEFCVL
In words: SPR. (In general: SPR reads the build-up and loss of mass on a sensor chip optically.)

The target of test [2] is T2, cyno OX40L (cynomolgus monkey, UniProt G7NVH7 51-183).
T2 construct: also called cyOX40L; cynomolgus monkey OX40L
T2 sequence: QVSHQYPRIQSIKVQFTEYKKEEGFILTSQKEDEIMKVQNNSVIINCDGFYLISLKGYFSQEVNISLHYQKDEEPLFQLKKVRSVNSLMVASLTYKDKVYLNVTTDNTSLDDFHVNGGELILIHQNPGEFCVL
In words: SPR.

In test [3] the target is T3, membrane bound human OX40L on CHO-KI cells (human, UniProt P23510 1-183).
T3 sequence (looked up): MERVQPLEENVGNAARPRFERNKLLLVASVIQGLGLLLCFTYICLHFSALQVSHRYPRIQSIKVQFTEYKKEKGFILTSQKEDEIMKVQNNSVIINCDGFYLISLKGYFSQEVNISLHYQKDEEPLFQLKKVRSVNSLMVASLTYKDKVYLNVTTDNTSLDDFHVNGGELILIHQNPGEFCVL
The test can be described thus: cell-based or functional assay.

The target in test [4] is T4, membrane bound cyno OX40L on CHO-KI cells (cynomolgus monkey, UniProt G7NVH7 1-183).
T4 sequence: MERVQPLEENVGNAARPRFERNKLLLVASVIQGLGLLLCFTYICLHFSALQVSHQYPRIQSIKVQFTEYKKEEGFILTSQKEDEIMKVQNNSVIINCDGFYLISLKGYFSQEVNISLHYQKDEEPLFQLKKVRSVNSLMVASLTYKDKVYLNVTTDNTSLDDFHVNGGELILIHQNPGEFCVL
The test can be described thus: cell-based or functional assay.

Test [5] addresses T1, human OX40L. In words: SPR KD against parental F027300042 (15B07).
Test [6] deals with T2, cyno OX40L. The test can be described thus: SPR KD against parental F027300042 (15B07).

B1: F027301552 (15B07AM) (VHH)
VHH: DVQLVESGGGVVQPGGSLRLSCAASRSIGRYDRMGWYRHRPGEPRELVATITGGSSINYGDSVKGRFTISIDNSKNTVYLQMNSLRPEDTALYYCNFNKYQISRDTWGQGTLVTVSS
Broadly, the Kd is the constant that tells how readily two partners part at equilibrium. A high value points to weaker binding. Turning to B1, the Kd in test [1] is 85.3 pM; in test [2] it was 108 pM. Also, the “IC50 (nM) PBMC assay human OX40L” value in test [3] came out at 1.78 nM. Further, the “IC50 (nM) PBMC assay cyno OX40L” value in test [4] is 7.58 nM. Also, the entries for the “Fold improved affinity vs parental” value in test [5] and in test [6] were 53 fold and 92 fold, respectively.
